# The nanobody polyreactivity screen of Harvey et al. (2022)
# Test: yeast display, Sf9 membrane polyspecificity reagent, FACS + sequencing; frameworks hold sequencing errors
# Procedure, shortened: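 Genes from sorted yeast were amplified by colony PCR, read by MiSeq 2 × 250 sequencing and filtered on CDR length. These cells carried a synthetic nanobody library in Saccharomyces cerevisiae BJ5465 and were sorted by FACS into low and high (top ~1%) gates on anti-HA and streptavidin fluorescence. Polyreactivity is labelled according to the gate of origin.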
row,Sequence,polyreactivity (PSR sort gate)
1,QVQLVESGGGLVQAGGSLRLSCAASGRTFKSYSMGWYRPAPGKERELVAAISWSGGSTYYADSVKGRFTISRDNAKNTVYLQMNSLKPEDTAVYYCAKRGYASGSKWDYGYWGQGTQVTVSS,high polyreactivity
2,QVQLVESGGGLVQAGGSLRLSCAASGRTFKTYAMGWYRQAPGKERELVAAISASGGRTYYADSVKGRFTISRDNAKNTVYLQMNSLKPEDTAVYYCAALGYILNGGDYWGQGTQVTVSS,high polyreactivity
3,QVQLVESGGGLVQAGGSLRLSCAASGRTFKTYAMGWYRQAPGKERELVAAITRRGGSTYYADSVKGRFTISSDNAKNTVYLQMNRLKPEDTAVYYCAAGFYFLSLFSGRMDYWGQGTQVTVSS,high polyreactivity
4,QVQLVESGGGLVQAGGSLRLSCAASGRTFKYNAMGWYRQAPGKERELVAAISSTGSTNYADSVKGRFTISRDNAKNTVYLQMNSLKPEDTAVYYCAASYFFVQWGWYYYWGQGTQVTVSS,low polyreactivity
5,QVQLVESGGGLVQAGGSLRLSCAASGRTFKYNAMGWYRQAPGKERELVATISGSGGRTYYADSVKGRFTISRDNAKNTVYLQMNSLTPEDTAVYYCAAVPSYHSTSPFYYWGLGTQVTVSS,high polyreactivity
6,QVQLVESGGGLVQAGGSLRLSCAASGRTFKYYAMGWYRQAPGKERELVAAISGSGGSTYYADSVKGRFTISRDNAKNTVYLQMNSLKPEDTAVYYCATGGGKTRSYNYWGQGTQVTVSS,high polyreactivity
7,QVQLVESGGGLVQAGGSLRLSCAASGRTFKYYAMGWYRQAPGKERELVAAISHSGGSTYYADSVKGRFTISRDNAKNTVYLQMNSLKPEDTAVYYCAADHGDGNYPYYYWGQGTQVTVSS,high polyreactivity
8,QVQLVESGGGLVQAGGSLRLSCAASGRTFKYYAMGWYRQAPGKERELVAAISYNGGSTFYADSVKGRFTISRDNAKNTVYLQMNSLKPVDTAVYYCAAGPRGTGKYYWGQGTQVTVSS,high polyreactivity
9,QVQLVESGGGLVQAGGSLRLSCAASGRTFKYYAMGWYRQAPGKERELVAAISYSGGSTYYADSVKGRFTISRDNAKNTVYLQMNSLKPEDTAVYYCAARFTRYYSGGDQKYDYWGQVTQVTVSS,high polyreactivity
10,QVQLVESGGGLVQAGGSLRLSCAASGRTFKYYAMGWYRQAPGKERELVAAITASDGSTYYADSVKGRFTISRDNAKNTVYLQMNSLKPEDTAVYYCAAVPYRYTYDYWGQGTQVTVSS,high polyreactivity
11,QVQLVESGGGLVQAGGSLRLSCAASGRTFKYYAMGWYRQAPGKERELVATINYSGGGTNYADSVKGRYTISRDNATNTVSLQMNSLKPDDTAVYYCAARWLWRIPYDYWGEGTQVTVSS,high polyreactivity
12,QVQLVESGGGLVQAGGSLRLSCAASGRTFLALGWYRPAPGKERELVAAISRTNYADSVKGRVTISRDNAKNTVYLQMHSLKPEETAVYYCAKEYYSYEGYLGLSYVRRYDYWGQGTQVTVSS,low polyreactivity
13,QVQLVESGGGLVQAGGSLRLSCAASGRTFLFYAMGWYRQAPGKERELVASITLNGGSTYYADSVKGRFTISRDNAKNTVYLQMNSLKPEETAVYYCNKRTRYQIGYGYWGQGTQVTVSS,low polyreactivity
14,QVQLVESGGGLVQAGGSLRLSCAASGRTFLGYTMGWYRQAPGKERELVAAITSGGSTYYADSVKGRFTISRDNAKNPVYLQMNSLKPEDTAVYYCARGYFEQVQYWYDNEYDFWGQGTQVTGSS,low polyreactivity
15,QVQLVESGGGLVQAGGSLRLSCAASGRTFLIYAMGWSRPAPGKERELVAAINFSGGNTYNADSVKGRFTISRDNAKHTVYLQMNSLKPEDTAVYYCAAGVYSFRYDYWGQGTQVTVSS,low polyreactivity
16,QVQLVESGGGLVQAGGSLRLSCAASGRTFLIYAMGWYRQAPGKERELVAAITSGGRTKYADSVKGRFTISRDNAKNTVYLQMNSLKPEDTAVYYCAAESNRLRYYYWGQGTQVTVSS,high polyreactivity
17,QVQLVESGGGLVQAGGSLRLSCAASGRTFLIYAMGWYRQAPGKERELVAGITRGSTTYADSVKGRFTISRDNAKNTVYLQMNSLKPEDTEVYYCAARNYSVATYGEYDYWGQGTQVTVSS,high polyreactivity
18,QVQLVESGGGLVQAGGSLRLSCAASGRTFLLNAMGWYRQAPGKERELVAAITGSGGRTNYADSVKGRFTISRDNAKNTVYLQMNSLKPEDTAVYYCNARFPDWALSEISHSTTYGYWGQGTQVTVSS,low polyreactivity
19,QVQLVESGGGLVQAGGSLRLSCAASGRTFLRNAMGWYRQAPGKERELVAAISWRGGSTYYADSLKGRFTISRDNAKNTVYLQMNSLKPEDTAVYYCNARDGLASDWGQGTQVTVSS,high polyreactivity
20,QVQLVESGGGLVQAGGSLRLSCAASGRTFLRYAMGWYRQAPRKERELVAAISVSGASTNYADSVKGRFTISRDYAKNTVYLQMNSLKPEDTAVYYCAARVADYDGVPLYRHGDYWGQGTQVTVSS,low polyreactivity
21,QVQLVESGGGLVQAGGSLRLSCAASGRTFLSYAMGWYRQAPGKERELVAAITSSGGTTNYADSVKGRFTISRDNAKNTVYLQMNSLKPEDTAVYYCAAYSWYFGSRYDYWGQGTQVTVSS,low polyreactivity
22,QVQLVESGGGLVQAGGSLRLSCAASGRTFLTNAMGWYRQAAGKERELVAAITSSGGNTYYADSVKGRFTISRDNAKNTVYLQMNSLKPEDTAVYYCAAPGYVWYGGRWVYRYYYWGQGTQVTVSS,high polyreactivity

row,Sequence,polyreactivity (PSR sort gate)
1,QVQLVESGGGLVQAGGSLRLSCAASGRTFLTNAMGWYRQAPGKERELVAAITSSGGSTYYADSVKGRFTISRDNAKNTVYLLMNSLKPEDTAVYYCNKKSALYRRYDYWGQGTQVTVSS,low polyreactivity
2,QVQLVESGGGLVQAGGSLRLSCAASGRTFLVNAMGWYRQAPGKERELVAAISQRGGSTDYADSVKGRFTISRDNAKNTVYLQMNSLKPEDTAVYYCAVRWGYLYDYWGQGTQVTVSS,low polyreactivity
3,QVQLVESGGGLVQAGGSLRLSCAASGRTFLVNAMGWYRQAPGKERELVAVMTRGGSTNYADSVKGRFTISRDNAKNTVYLQMNSLKPEDTAVYYCAKQFSPYRSYGPVVRYDYWGQGTQVTVSS,low polyreactivity
4,QVQLVESGGGLVQAGGSLRLSCAASGRTFLVNAMGWYRQAPGKEREYVAAINFSVGTTTYADSVKGRFTISRDNAKNTVYLQMNSLKPEDTAVYYCNTYGRYWYIREDYWGQGTQVTVSS,high polyreactivity
5,QVQLVESGGGLVQAGGSLRLSCAASGRTFLVYAMGWYRQAPGKERELVAAISSDGSTNYADSVKGRFTISRDNAKNTVYLQMNSLKPEDTAVYYCARDGRTEHRGFDYWGQGTQVTVSS,low polyreactivity
6,QVQLVESGGGLVQAGGSLRLSCAASGRTFLYNTMGWYRQAPGKERELVAVISIDGGGTYADSVKGRFTISRDNAKNNVYLQMNSLKPEDTAVYDCAVDALCITYGYWGQGTQVTVSS,low polyreactivity
7,QVQLVESGGGLVQAGGSLRLSCAASGRTFLYYAMGWYRQAPGKERELVAAISSGGSTNYADSVKGRFTISRDNAKNTVYLQMNSLKPEDTAVYYCNADYTSRDTSDVIYEYDYWGQGTQVTVSS,low polyreactivity
8,QVQLVESGGGLVQAGGSLRLSCAASGRTFLYYAMGWYRQAPGKERELVAGITSGGSTNYADSVKGRFTITRDNAKNTVYLQMNSLKPEDTAVYYCAVDQGYSRTADVNYDYWGQGTQVTVSS,low polyreactivity
9,QVQLVESGGGLVQAGGSLRLSCAASGRTFLYYTMGWYRQAPGKERELVAAITSGTSTNYADSVKGRFTISRDNAKNTVYLQMNSLKPEDTAVYYCNKRAARSLNGYPLYGYYYWGQGTQVTVSS,low polyreactivity
10,QVQLVESGGGLVQAGGSLRLSCAASGRTFNGNTMGWYRQAPGKERELVAAISRRGGSTYYADSVKGRFTISRDTAKNTVYLQMNSLKPEVTAVYYCATHSTFGYDYWGQGTQVTVSS,high polyreactivity
11,QVQLVESGGGLVQAGGSLRLSCAASGRTFNGYAMGWYRQAPGKERELVASISRDGSTNYADSVKGRFTISRDNAKNTVYLQMNSLKPEDTAVYYCAADIWYYRYPIYYYSYDYWGQGTQVTVSS,low polyreactivity
12,QVQLVESGGGLVQAGGSLRLSCAASGRTFNHNPMRWYRQAPGKERELVAAISYSGGGTYYADSVKGRFTFSRDNAKNSVYLQMNSLKPEDTAVYFCAAYPVRGAYGYWGQGTQVTVSS,low polyreactivity
13,QVQLVESGGGLVQAGGSLRLSCAASGRTFNINAMGWYRPAPGKERELVASISWGGGRTYSADSVKGRFTISRDNAKNTVYLQKNSLKPEDPAVYYCAADYAGNKGVPYYYKYNYWGQGTQVTVSS,high polyreactivity
14,QVQLVESGGGLVQAGGSLRLSCAASGRTFNIYAMGWYRQAPGKERELVAAITFTGGNTYYADSVKGRFTISRDNAKNTVYLQMNSLKPEDTAVYYCNKRLKWRSYDYWGQGTQVTVSS,low polyreactivity
15,QVQLVESGGGLVQAGGSLRLSCAASGRTFNRNAMGWYRQAPRKERELVAAISRGGTTSYADSVKGRFTISRDNAKNTVYLQMNSLQPEDTAVYYCAAEPYIQWVYYRGNGRRYGYWGQGTQVTVSS,high polyreactivity
16,QVQLVESGGGLVQAGGSLRLSCAASGRTFNRYAMGWYRQAPGKEREFVASITRSGGSTYYADSVKGRFTISRDNAKNTVYLQMNSLKPEDTAVYYCAAQLRYKYDYWGQGTQVTVSS,high polyreactivity
17,QVQLVESGGGLVQAGGSLRLSCAASGRTFNSHVMRWYRQAPGKERELVAAISSRGGGTYYADSVKGRFTISRDNAKNTVYLQMNSLNPEDTAVYYCITVVSRSYRDGPPDPYDSWGQGTQVTVSS,high polyreactivity
18,QVQLVESGGGLVQAGGSLRLSCAASGRTFNSYAMGWYRQAPGKERELVASISSGGSTYYADSVKGRFTLSRDNAKHTDYLQMNSLKPEDTAVYYCAAKSVAYYSYFRRDYWGQGTQVTVSS,low polyreactivity
19,QVQLVESGGGLVQAGGSLRLSCAASGRTFNVYAMGWYRQAPGKETELVAVITNGGSTNYADSVKGRFTISRDNAKNTVYFQMNSLKPEDTAVYYCAAREDLYLYYNGQRVQYDYCGQGTQVTVSS,low polyreactivity
20,QVQLVESGGGLVQAGGSLRLSCAASGRTFNWNAMGWYRQAPGKESEFVADISGRGGSTYYADSVKGRFTISRDNAKNTVYLQMNSLKPEETAVYYCAARPRFLRASVEFDYWGQGTQVTVSS,high polyreactivity
21,QVQLVESGGGLVQAGGSLRLSCAASGRTFNWYAMGWYRQTPGKERELVAGITRIGTTTYYADSVKGRFTISRDNAKITVYLQMNSLKPEDTAVYYCASDQRKLGADFDSWGQGTQVTVSS,high polyreactivity
